Source: US20240425587A1 (Alector, published 2024)

Legend:
[1] = molecular target: T1, human PILRA, c-term His-Avi tag (human, UniProt Q9UKJ1 20-197, limits assumed); assay: SPR (Biacore), antibody captured, PILRA as analyte
T1 construct: not shown: C-terminal His-Avi tag
Method: Experiments were performed to determine the kinetics of anti-PILRA antibody binding to human […]. The assay is depicted in FIG. 6. A rabbit anti-PILRA was used as a positive control, and H1 LALAPS was used as a negative control. Human PILRA (human PILRA, c-term His-Avi tag, 0.68 mg/mi) was used as the antigen. The running buffer was HBSTE/0.5% BSA, pH 7.4, and the regeneration solution was 10 mM glycine-HCl (pH 2.1). In the assay, antibodies were captured at 10 μg/ml by immobilized anti-huFc or anti-msFc on a Biacore CM5 chip, and human PILRA flowed at 33, 100, and 300 nM. The surface was regenerated after each analyte, and all curves were double-referenced with buffer injections.

[2] = molecular target: T2, murine PILRB, ectopically expressed on 293 cells (murine, UniProt Q2YFS2 29-224); assay: flow cytometry, 293 cells expressing target
T2 construct: whole, on cells; also called mB
Method: (§1) Briefly, conditioned media containing antibodies were incubated with 293 cells for 30 min at 4° C., washed twice, and then detected with anti-mouse IgG Alexa 647.

[3] = molecular target: T3, human PILRA, G78 variant, ectopically expressed on 293 cells (human, UniProt Q9UKJ1 20-303); assay: flow cytometry, 293 cells expressing target
T3 construct: the cells are labelled G78; also called hA G78 OE; hA
Method: as §1

[4] = molecular target: T4, murine PILRA, ectopically expressed on 293 cells (murine, UniProt Q2YFS3 32-302); assay: flow cytometry, 293 cells expressing target
T4 construct: also called mA
Method: as §1

[5] = molecular target: cynomolgus PILRA, ectopically expressed on 293 cells (cynomolgus monkey); assay: flow cytometry, 293 cells expressing target
Method: as §1

[6] = molecular target: T3, human PILRA, G78 variant, ectopically …; assay: flow cytometry; blocking of NPDC1-hIgG1 binding to 293 cells expressing human PILRA G78
[7] = molecular target: T5, human PILRB, ectopically expressed on 293 cells (human, UniProt Q9UKJ0 20-227); assay: flow cytometry, 293 cells expressing target
T5 construct: also called hB
Method: as §1

Sequence of cynomolgus PILRA, ectopically expressed on 293 cells (cynomolgus monkey) (chain, as listed by the source): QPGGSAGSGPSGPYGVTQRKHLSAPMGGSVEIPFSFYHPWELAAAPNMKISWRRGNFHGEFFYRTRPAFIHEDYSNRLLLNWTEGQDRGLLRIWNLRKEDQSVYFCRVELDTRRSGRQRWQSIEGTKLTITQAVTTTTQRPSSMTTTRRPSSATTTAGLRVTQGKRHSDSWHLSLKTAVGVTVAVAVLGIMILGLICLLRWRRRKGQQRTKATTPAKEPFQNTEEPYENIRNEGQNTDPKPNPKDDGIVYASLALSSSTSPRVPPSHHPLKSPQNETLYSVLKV
T5 sequence (Q9UKJ0 20-227): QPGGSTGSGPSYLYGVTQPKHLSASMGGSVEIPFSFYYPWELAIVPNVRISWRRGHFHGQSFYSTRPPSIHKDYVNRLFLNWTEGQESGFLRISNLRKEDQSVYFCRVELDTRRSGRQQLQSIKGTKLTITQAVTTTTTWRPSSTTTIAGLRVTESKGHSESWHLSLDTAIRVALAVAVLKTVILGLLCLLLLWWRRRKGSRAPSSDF
T2 sequence (Q2YFS2 29-224): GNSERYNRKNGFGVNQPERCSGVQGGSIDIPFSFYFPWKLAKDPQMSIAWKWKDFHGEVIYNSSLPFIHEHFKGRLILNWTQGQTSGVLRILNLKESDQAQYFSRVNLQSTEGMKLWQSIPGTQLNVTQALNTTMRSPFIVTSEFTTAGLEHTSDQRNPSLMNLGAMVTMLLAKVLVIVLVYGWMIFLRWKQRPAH
T3 sequence (Q9UKJ1 other isoform, or with tags, fused parts or gaps mutant): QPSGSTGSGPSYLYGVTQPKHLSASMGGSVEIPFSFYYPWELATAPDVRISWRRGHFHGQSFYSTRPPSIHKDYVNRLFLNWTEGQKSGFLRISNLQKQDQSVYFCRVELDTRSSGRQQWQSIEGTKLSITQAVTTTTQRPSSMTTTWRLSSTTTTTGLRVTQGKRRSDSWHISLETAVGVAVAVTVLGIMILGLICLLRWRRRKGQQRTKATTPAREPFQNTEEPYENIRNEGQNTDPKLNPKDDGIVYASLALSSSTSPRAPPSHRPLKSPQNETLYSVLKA
T1 sequence (Q9UKJ1 20-197 limits assumed): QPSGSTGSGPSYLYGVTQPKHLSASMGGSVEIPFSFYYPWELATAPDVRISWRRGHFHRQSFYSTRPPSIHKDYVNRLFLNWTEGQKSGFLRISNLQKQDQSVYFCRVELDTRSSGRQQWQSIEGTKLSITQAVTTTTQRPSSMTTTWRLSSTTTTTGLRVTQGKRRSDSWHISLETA
T4 sequence (Q2YFS3 32-302): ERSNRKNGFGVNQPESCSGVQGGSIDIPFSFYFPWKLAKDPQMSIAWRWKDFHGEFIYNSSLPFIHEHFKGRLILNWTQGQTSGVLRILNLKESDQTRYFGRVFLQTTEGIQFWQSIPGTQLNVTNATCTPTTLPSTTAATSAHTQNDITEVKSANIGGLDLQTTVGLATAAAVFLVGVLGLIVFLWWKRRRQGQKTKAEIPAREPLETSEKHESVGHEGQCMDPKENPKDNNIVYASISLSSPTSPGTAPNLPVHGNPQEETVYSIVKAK

B1: A2 (antibody, V domains shown)
VH: EVQLLESGGGLVKPGGSLRLSCAASGFTFSDYYMSWVRQAPGKGLEWVSSISIGGGGTYYADSVKGRFTISRDDSKNTLYLQMNSLRAEDTAVYYCASHGFGARKMDFWGQGTTVTVSS
VL: DIQMTQSPSSLSASVGDRVTITCRASQSIRSYVNWYQQKPGKAPKLLIYDASNLETGVPSRFSGSGSGTDFTLTISSLQPEDFATYYCQQSYSPPITFGQGTKVEIK
notes: phage campaign
Work on B1 yielded a Kd [1] of 193 nM, a koff [1] of 0.0063 s⁻¹ and a kon [1] of 33000 M⁻¹ s⁻¹. The binding result [2] was “no binding”, the EC50 [3] was 0.3 µg/mL and the binding result [4] was “no binding”. The binding result [5] was “no binding” and the IC50 [6] was 0.78 µg/mL.

B2: A14 (antibody, V domains shown)
VH: QVQLVQSGAEVKKPGASVKVSCKASGYTFTSYYMYWVRQAPGQGLEWMGWMNPNSGNTGFAQKFQGRVTMTRDTSTSTVYMELSSLRSEDTAVYYCASGYYDSWSGETDYGMDVWGQGTTVTVSS
VL: DIQMTQSPSSLSASVGDRVTITCRASQSISSYLNWYQQKPGKAPKLLIYDASTLESGVPSRFSGSGSGTDFTLTISSLQPEDFATYYCQQSYKTPYTFGQGTKLEIK
notes: phage campaign
B2 showed a Kd [1] of 12.2 nM, a koff [1] of 0.0012 s⁻¹ and a kon [1] of 99000 M⁻¹ s⁻¹. For the same binder, the t½ [1] was 9.6 min, the binding result [2] was “no binding” and the EC50 [3] was 0.5 µg/mL. For the same binder, the binding result [4] was “no binding”, the EC50 [7] was 12.9 µg/mL and the EC50 [5] was 11.5 µg/mL.

B3: E15 (antibody, V domains shown)
VH: QVQLQQSGAELVKPGASVKLSCKASGNTFTIYDINWVRQRPEQGLEWIGWIFPGDGSTKYNGKFKGKATLTTDKSSSTAYMQLSRLTSEDSAVYFCARRAHYYGSSFDYWGQGTTLTVSS
VL: DIQMTQSSSYLSVSLGGRVTITCKASDHINNWLAWYQQKPGNGPRLLISGAISLEIGVPSRFSGSGSGKEYTLSITSLQTEDVATYYCQQYWSPPWTFGGGTKLEIK
notes: B-cell cloning campaign (mice)
Work on B3 yielded a Kd [1] of 31.3 nM, a koff [1] of 0.0017 s⁻¹ and a kon [1] of 53000 M⁻¹ s⁻¹. The t½ [1] was 6.9 min, the binding result [2] was “no binding” and the EC50 [3] was 4.73 µg/mL. The binding result [4] was “no binding”, the EC50 [7] was 16.4 µg/mL and the EC50 [5] was 14.6 µg/mL.

B4: A12 (antibody, V domains shown)
VH: QVQLVQSGAEVKKPGASVKVSCKASGYNFNDYYIHWVRQAPGQGLEWMGWISAYNGNTNYAQKLQGRVTMTRDTSTSTVYMELSSLRSEDTAVYYCARDGWYCSSSSCYTGSDYWGQGTLVTVSS
VL: DIQMTQSPSSLSASVGDRVTITCRASQSISNYLNWYQQKPGKAPKLLIYGASTLHSGVPSRFSGSGSGTDFTLTISSLQPEDFATYYCQQSYSTPFTFGPGTKVDIK
notes: phage campaign
With B4 the Kd [1] was 19.3 nM, the koff [1] was 0.0012 s⁻¹ and the kon [1] was 63000 M⁻¹ s⁻¹. For the same binder, the t½ [1] was 9.6 min, the binding result [2] was “no binding” and the EC50 [3] was 0.4 µg/mL. For the same binder, the binding result [4] was “no binding”, the EC50 [7] was 8.6 µg/mL and the EC50 [5] was 8.6 µg/mL.

B5: A15 (antibody, V domains shown)
VH: QVQLVQSGAEVKKPGASVKVSCKASGGTFSNYGLTWVRQAPGQGLEWMGWINLNSGGTYYAQKFQGRVTMTRDTSTSTVYMELSSLRSEDTAVYYCARDRYSSGWYEGDAFDIWGQGTMVTVSS
VL: DIQMTQSPSSLSASVGDRVTITCRASQGISNWLAWYQQKPGKAPKLLIYAASSLQSGVPSRFSGSGSGTDFTLTISSLQPEDFATYYCQQSYSTPWTFGPGTKVDIK
notes: phage campaign
For B5, the binding result [2] was “no binding”, the EC50 [3] was 0.2 µg/mL and the binding result [4] was “no binding”. It also gave an EC50 [7] of 10.5 µg/mL, an EC50 [5] of 11.1 µg/mL and an IC50 [6] of 0.27 µg/mL.

B6: E10 (antibody, V domains shown)
VH: EVQLLESGGGLVKPGGSLRLSCAASGFTFSNYAMSWVRQAPGKGLEWVAVIYSGADTYYADSVKGRFTISRDDSKNTLYLQMNSLKTEDTAVYYCTRDIGLNYGDYELFDYWGQGTLVTVSS
VL: DIVMTQSPLSLPVTPGEPASISCRSSQSLLHSNGYNYLDWYLQKPGQSPQLLIYDASNLETGVPDRFSGSGSGTDFTLKISRVEAEDVGVYYCMQGLQTPYVFGQGTKLEIK
notes: phage campaign
Work on B6 yielded a Kd [1] of 14.5 nM, a koff [1] of 0.0016 s⁻¹ and a kon [1] of 110000 M⁻¹ s⁻¹. The binding result [2] was “no binding”, the EC50 [3] was 0.1 µg/mL and the binding result [4] was “no binding”. B6: no binding [7]; no binding [5].
